Data reported in patent publication US20140294898A1 (published 2014).
Positions of bridges follow the written chain, without caps; N, C: chain ends. Non-standard residues stand in square brackets, D forms with d. Phe(4-CF3) = N[C@@H](Cc1ccc(C(F)(F)F)cc1)C(=O)O; Phe(4-tBu) = CC(C)(C)c1ccc(C[C@H](N)C(=O)O)cc1; Bip = N[C@@H](Cc1ccc(-c2ccccc2)cc1)C(=O)O; Phe(4-Br) = N[C@@H](Cc1ccc(Br)cc1)C(=O)O; 1Nal = N[C@@H](Cc1cccc2ccccc12)C(=O)O; 2Nal = N[C@@H](Cc1ccc2ccccc2c1)C(=O)O; NMeNle = CCCC[C@H](NC)C(=O)O; NMeA = CN[C@@H](C)C(=O)O; Sar = CNCC(=O)O

B1: Compound No. 19 (peptide)
peptide: FANPHLGWSWAXRCG
HELM: PEPTIDE1{[O=C(C[*:3])[*:2]].F.[meA].N.P.H.L.[Sar].W.S.W.[meA].[CCCC[C@@H](C(=O)[*:2])N(C)[*:1]].R.C.G.[am]}$PEPTIDE1,PEPTIDE1,1:R3-15:R3$$$V2.0
SMILES: CCCC[C@H]1C(=O)N[C@@H](CCCNC(=N)N)C(=O)N[C@H](C(=O)NCC(N)=O)CSCC(=O)N[C@@H](Cc2ccccc2)C(=O)N(C)[C@@H](C)C(=O)N[C@@H](CC(N)=O)C(=O)N2CCC[C@H]2C(=O)N[C@@H](Cc2c[nH]cn2)C(=O)N[C@@H](CC(C)C)C(=O)N(C)CC(=O)N[C@@H](Cc2c[nH]c3ccccc23)C(=O)N[C@@H](CO)C(=O)N[C@@H](Cc2c[nH]c3ccccc23)C(=O)N(C)[C@@H](C)C(=O)N1C
B2: Compound No. 26 (peptide)
peptide: {CH2CO}-[2Nal][NMeA]NPHL[Sar]WSW[NMeNle][NMeNle]RCG-NH2
modifications: thioether N-14
SMILES: CCCC[C@H]1C(=O)N(C)[C@@H](CCCC)C(=O)N[C@@H](CCCNC(=N)N)C(=O)N[C@H](C(=O)NCC(N)=O)CSCC(=O)N[C@@H](Cc2ccc3ccccc3c2)C(=O)N(C)[C@@H](C)C(=O)N[C@@H](CC(N)=O)C(=O)N2CCC[C@H]2C(=O)N[C@@H](Cc2c[nH]cn2)C(=O)N[C@@H](CC(C)C)C(=O)N(C)CC(=O)N[C@@H](Cc2c[nH]c3ccccc23)C(=O)N[C@@H](CO)C(=O)N[C@@H](Cc2c[nH]c3ccccc23)C(=O)N1C
B3: Compound No. 28 (peptide)
peptide: {CH2CO}-[Bip][NMeA]NPHL[Sar]WSW[NMeNle][NMeNle]RCG-NH2
modifications: thioether N-14
SMILES: CCCC[C@H]1C(=O)N(C)[C@@H](CCCC)C(=O)N[C@@H](CCCNC(=N)N)C(=O)N[C@H](C(=O)NCC(N)=O)CSCC(=O)N[C@@H](Cc2ccc(-c3ccccc3)cc2)C(=O)N(C)[C@@H](C)C(=O)N[C@@H](CC(N)=O)C(=O)N2CCC[C@H]2C(=O)N[C@@H](Cc2c[nH]cn2)C(=O)N[C@@H](CC(C)C)C(=O)N(C)CC(=O)N[C@@H](Cc2c[nH]c3ccccc23)C(=O)N[C@@H](CO)C(=O)N[C@@H](Cc2c[nH]c3ccccc23)C(=O)N1C
B4: Compound No. 35 (peptide)
peptide: {CH2CO}-[Phe(4-CF3)][NMeA]NPHL[Sar]WSW[NMeNle][NMeNle]RCG-NH2
modifications: thioether N-14
SMILES: CCCC[C@H]1C(=O)N(C)[C@@H](CCCC)C(=O)N[C@@H](CCCNC(=N)N)C(=O)N[C@H](C(=O)NCC(N)=O)CSCC(=O)N[C@@H](Cc2ccc(C(F)(F)F)cc2)C(=O)N(C)[C@@H](C)C(=O)N[C@@H](CC(N)=O)C(=O)N2CCC[C@H]2C(=O)N[C@@H](Cc2c[nH]cn2)C(=O)N[C@@H](CC(C)C)C(=O)N(C)CC(=O)N[C@@H](Cc2c[nH]c3ccccc23)C(=O)N[C@@H](CO)C(=O)N[C@@H](Cc2c[nH]c3ccccc23)C(=O)N1C
B5: Compound No. 24 (peptide)
peptide: {CH2CO}-F[NMeA]NPHL[Sar]WSW[NMeNle][NMeNle]RC-NH2
modifications: thioether N-14
SMILES: CCCC[C@H]1C(=O)N(C)[C@@H](CCCC)C(=O)N[C@@H](CCCNC(=N)N)C(=O)N[C@H](C(N)=O)CSCC(=O)N[C@@H](Cc2ccccc2)C(=O)N(C)[C@@H](C)C(=O)N[C@@H](CC(N)=O)C(=O)N2CCC[C@H]2C(=O)N[C@@H](Cc2c[nH]cn2)C(=O)N[C@@H](CC(C)C)C(=O)N(C)CC(=O)N[C@@H](Cc2c[nH]c3ccccc23)C(=O)N[C@@H](CO)C(=O)N[C@@H](Cc2c[nH]c3ccccc23)C(=O)N1C
B6: Compound No. 27 (peptide)
peptide: {CH2CO}-[1Nal][NMeA]NPHL[Sar]WSW[NMeNle][NMeNle]RCG-NH2
modifications: thioether N-14
SMILES: CCCC[C@H]1C(=O)N(C)[C@@H](CCCC)C(=O)N[C@@H](CCCNC(=N)N)C(=O)N[C@H](C(=O)NCC(N)=O)CSCC(=O)N[C@@H](Cc2cccc3ccccc23)C(=O)N(C)[C@@H](C)C(=O)N[C@@H](CC(N)=O)C(=O)N2CCC[C@H]2C(=O)N[C@@H](Cc2c[nH]cn2)C(=O)N[C@@H](CC(C)C)C(=O)N(C)CC(=O)N[C@@H](Cc2c[nH]c3ccccc23)C(=O)N[C@@H](CO)C(=O)N[C@@H](Cc2c[nH]c3ccccc23)C(=O)N1C
B7: Compound No. 12 (peptide)
peptide: {CH2CO}-F[NMeA]NPHLGWSW[NMeNle][NMeNle]RCG-NH2
modifications: thioether N-14
SMILES: CCCC[C@H]1C(=O)N(C)[C@@H](CCCC)C(=O)N[C@@H](CCCNC(=N)N)C(=O)N[C@H](C(=O)NCC(N)=O)CSCC(=O)N[C@@H](Cc2ccccc2)C(=O)N(C)[C@@H](C)C(=O)N[C@@H](CC(N)=O)C(=O)N2CCC[C@H]2C(=O)N[C@@H](Cc2c[nH]cn2)C(=O)N[C@@H](CC(C)C)C(=O)NCC(=O)N[C@@H](Cc2c[nH]c3ccccc23)C(=O)N[C@@H](CO)C(=O)N[C@@H](Cc2c[nH]c3ccccc23)C(=O)N1C
B8: Compound No. 34 (peptide)
peptide: {CH2CO}-[Phe(4-Br)][NMeA]NPHL[Sar]WSW[NMeNle][NMeNle]RCG-NH2
modifications: thioether N-14
SMILES: CCCC[C@H]1C(=O)N(C)[C@@H](CCCC)C(=O)N[C@@H](CCCNC(=N)N)C(=O)N[C@H](C(=O)NCC(N)=O)CSCC(=O)N[C@@H](Cc2ccc(Br)cc2)C(=O)N(C)[C@@H](C)C(=O)N[C@@H](CC(N)=O)C(=O)N2CCC[C@H]2C(=O)N[C@@H](Cc2c[nH]cn2)C(=O)N[C@@H](CC(C)C)C(=O)N(C)CC(=O)N[C@@H](Cc2c[nH]c3ccccc23)C(=O)N[C@@H](CO)C(=O)N[C@@H](Cc2c[nH]c3ccccc23)C(=O)N1C
B9: Compound No. 21 (peptide)
peptide: FANPHLGWSWXARCG
HELM: PEPTIDE1{[O=C(C[*:3])[*:2]].F.[meA].N.P.H.L.[Sar].W.S.W.[CCCC[C@@H](C(=O)[*:2])N(C)[*:1]].[meA].R.C.G.[am]}$PEPTIDE1,PEPTIDE1,1:R3-15:R3$$$V2.0
SMILES: CCCC[C@H]1C(=O)N(C)[C@@H](C)C(=O)N[C@@H](CCCNC(=N)N)C(=O)N[C@H](C(=O)NCC(N)=O)CSCC(=O)N[C@@H](Cc2ccccc2)C(=O)N(C)[C@@H](C)C(=O)N[C@@H](CC(N)=O)C(=O)N2CCC[C@H]2C(=O)N[C@@H](Cc2c[nH]cn2)C(=O)N[C@@H](CC(C)C)C(=O)N(C)CC(=O)N[C@@H](Cc2c[nH]c3ccccc23)C(=O)N[C@@H](CO)C(=O)N[C@@H](Cc2c[nH]c3ccccc23)C(=O)N1C
B10: Compound No. 37 (peptide)
peptide: {CH2CO}-[Phe(4-tBu)][NMeA]NPHL[Sar]WSW[NMeNle][NMeNle]RCG-NH2
modifications: thioether N-14
SMILES: CCCC[C@H]1C(=O)N(C)[C@@H](CCCC)C(=O)N[C@@H](CCCNC(=N)N)C(=O)N[C@H](C(=O)NCC(N)=O)CSCC(=O)N[C@@H](Cc2ccc(C(C)(C)C)cc2)C(=O)N(C)[C@@H](C)C(=O)N[C@@H](CC(N)=O)C(=O)N2CCC[C@H]2C(=O)N[C@@H](Cc2c[nH]cn2)C(=O)N[C@@H](CC(C)C)C(=O)N(C)CC(=O)N[C@@H](Cc2c[nH]c3ccccc23)C(=O)N[C@@H](CO)C(=O)N[C@@H](Cc2c[nH]c3ccccc23)C(=O)N1C

biological target: T1, hPDL1(19-239)-TVMV-His (human, UniProt Q9NZQ7 19-239); experiment: HTRF competition, PD-1-Ig binding to PD-L1-His
T1 construct: The text says amino acids 18-239, the construct name says 19-239; Expressed in HEK293T cells; Used at 10 nM final in the HTRF assay; also called PD-L1-His; PD-L1-TVMV-His
Protocol: All binding studies were performed in an HTRF assay buffer consisting of dPBS supplemented with 0.1% (w/v) bovine serum albumin and 0.05% (v/v) Tween-20. […] PD-L1 fusion proteins from either human, cynomologous macaques, or mouse were used. HTRF detection was achieved using europium crypate-labeled anti-Ig monoclonal antibody (1 nM final) and allophycocyanin (APC) labeled anti-His monoclonal antibody (20 nM final). Antibodies were diluted in HTRF detection buffer and 5 μl was dispensed on top of binding reaction. The reaction was allowed to equilibrate for 30 minutes and signal (665 nm/620 nm ratio) was obtained using an EnVision fluorometer. […]
HTRF Experiments were performed essentially as outlined supra. Variant macrocyclic peptides were created as outlined herein.

T1 sequence (Q9NZQ7 other isoform, or with tags, fused parts or gaps limits assumed): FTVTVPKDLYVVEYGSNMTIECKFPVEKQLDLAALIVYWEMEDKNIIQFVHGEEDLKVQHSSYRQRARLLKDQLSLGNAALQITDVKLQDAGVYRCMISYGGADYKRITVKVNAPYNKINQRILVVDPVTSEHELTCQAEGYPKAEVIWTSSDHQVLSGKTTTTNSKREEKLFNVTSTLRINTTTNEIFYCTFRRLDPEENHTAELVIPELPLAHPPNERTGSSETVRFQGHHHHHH

Compared with B1, B2 is 2.2-fold lower in IC50: 33 nM for the first, 15 nM for the second. The second is the more potent here.

First: B3
Second: B4
The IC50 of the first is 2.1-fold higher: 117 nM for the first, 56 nM for the second.

Compared with B5, B6 is 2.2-fold higher in IC50: 9 nM for the first, 20 nM for the second.

Compared with B7, B8 is 5.5-fold lower in IC50: 22 nM for the first, 4 nM for the second. The second is the more potent here.

Going from B9 to B10, the IC50 rises from 21 nM to 1270 nM (60-fold).
